US20170218087A1

Molecular target: cell surface TrkA on the human erythroleukemic cell line TF-1 (human), P04629
Experiment: cell-based or functional assay

Chain of cell surface TrkA on the human erythroleukemic cell line TF-1 (human), P04629 (P04629 33-796): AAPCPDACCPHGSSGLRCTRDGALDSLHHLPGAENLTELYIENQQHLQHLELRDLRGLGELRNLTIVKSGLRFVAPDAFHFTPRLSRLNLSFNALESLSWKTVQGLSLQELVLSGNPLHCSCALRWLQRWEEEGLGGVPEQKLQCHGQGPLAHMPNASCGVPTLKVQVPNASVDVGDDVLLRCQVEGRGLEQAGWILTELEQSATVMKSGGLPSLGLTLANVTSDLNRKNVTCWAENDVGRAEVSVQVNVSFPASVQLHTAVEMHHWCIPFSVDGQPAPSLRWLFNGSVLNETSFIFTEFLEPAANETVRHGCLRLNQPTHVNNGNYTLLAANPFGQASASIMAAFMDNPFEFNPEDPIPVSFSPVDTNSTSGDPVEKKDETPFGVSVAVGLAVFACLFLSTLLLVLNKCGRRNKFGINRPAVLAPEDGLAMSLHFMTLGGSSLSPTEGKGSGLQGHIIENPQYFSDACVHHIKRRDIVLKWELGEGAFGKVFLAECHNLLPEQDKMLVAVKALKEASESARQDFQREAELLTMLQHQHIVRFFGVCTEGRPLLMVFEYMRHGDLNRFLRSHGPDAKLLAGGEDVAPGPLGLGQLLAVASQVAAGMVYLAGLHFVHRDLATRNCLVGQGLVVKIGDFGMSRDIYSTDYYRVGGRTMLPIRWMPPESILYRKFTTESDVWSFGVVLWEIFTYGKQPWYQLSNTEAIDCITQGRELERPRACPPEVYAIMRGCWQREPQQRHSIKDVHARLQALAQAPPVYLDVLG

TF-1 cell proliferation assay IC50 (NGF-induced): 0.23 µg/mL
B1: MNAC13 mouse antibody (antibody, mouse IgG1, kappa)
heavy: EVKLVESGGGLVQPGGSLKLSCAASGFTFSTYTMSWARQTPEKRLEWVAYISKGGGSTYYPDTVKGRFTISRDNAKNTLYLQMSSLKSEDTALYYCARGAMYGNDFFYPMDYWGQGTSVTVSSKTTPPSVYPLAPGSAAQTNSMVTLGCLVKGYFPEPVTVTWNSGSLSSGVHTFPAVLESDLYTLSSSVTVPSSPRPSETVTCNVAHPASSTKVDKKIVPRDCGCKPCICTVPEVSSVFIFPPKPKDVLTITLTPKVTCVVVDISKDDPEVQFSWFVDDVEVHTAQTQPREEQFNSTFRSVSELPIMHQDWLNGKEFKCRVNSAAFPAPIEKTISKTKGRPKAPQVYTIPPPKEQMAKDKVSLTCMITDFFPEDITVEWQWNGQPAENYKNTQPIMNTNGSYFVYSKLNVQKSNWEAGNTFTCSVLHEGLHNHHTEKSLSHSPGK
light: QIVLTQSPAIMSASLGEEITLTCSASSSVSYMHWYQQKSGTSPKLLIYTTSNLASGVPSRFSGSGSGTFYSLTISSVEAEDAADYYCHQWSSYPWTFGGGTKLEIKADAAPTVSIFPPSSEQLTSGGASVVCFLNNFYPKDINVKWKIDGSERQNGVLNSWTDQDSKDSTYSMSSTLTLTKDEYERHNSYTCEATHKTSTSPIVKSFNRNEC
